Results on 13 proteins are retold here after patent US20250027068.

B1: PRT-568 (protein)
chain: MANQEIRYSEATPSHITSVWTKGVTPPTQFIQNEDVLHAPYIANQGWYDITKTFNGKDDLLCGAATAGNMLHWWFDQNKTQIENYLKKHPEKQKINFNGEQMFDVKEAIDTKDSQTDSALFSYFKDKAFPYLSTKHLGVFPDHVIDMFINGYRLSLTNHGPTPVKRQTKDPRGGIFDAVFTRGDQSKLLTARHDFKEKTLNEISQLIKQELTEGKALGLSHTYANVRINHVINLWGADFNAEGNLEAIYVTDSDSNASIGMKKYYVGVNAAGHVAISAKEIEGDNIGAQVLGLFTLSTGQDIWQQTNLEHHHHHH
B2: PRT-697 (protein)
chain: MTITSVWTKGVIPPTPEDFRYNNEDVLHAPYVPNQGWYDITKTFDGGDNLLCGAATAGNMLHWWFDQNKEEIERYLKKYPEKQKIIFNNQELFDVRAAINTKDSQTNSKLFNYFRDKAFPNLSARQLGVMPDLVLDMFINGYYLNLGKTQSTDVNRPYQDRDKRGGIFDHVFGRGDQTTLLTARHDLKNGGLNEISDLIKQELQSGKALALSHTYANVRINHVINLWGADFDAEGNLIAIYVTDSDANSSIGMKKYYVGVNANGKVAISAKKIEGDNIGAQVLGLFTLSTGQEIWQKLSLEHHHHHH
B3: PRT-650 (protein)
chain: MQITSVWTKGVTPLTPEQFRYNNEDVIHAPYLAHQGWYDITKAFDGKDNLLCGAATAGNMLHWWFDQNKTEIEAYLSKHPEKQKIIFNNQKLFDLKAAIDTKDSQTNSQLFNYFRDKAFPNLSARQLGVMPDLVLDMFINGYYLNVTKTQSTDVNRPYQTKDPRGGIFDAVFTRGDQTTLLTARHDLKNKGLNDISTIIKQELTEGRALALSHTYANVSISHVINLWGADFNAEGNLEAIYVTDSDANASIGMKKYFVGINAHGHVAISAKKIEGENIGAQVLGLFTLSSGKDIWQKLSLEHHHHHH
B4: PRT-611 (protein)
chain: MQITSVWTKGVTPLTPEQFRYNNEDVIHAPYLAHQGWYDITKAFDGKDNLLCGAATAGNMLHWWFDQNKTEIEAYLSKHPEKQKIIFNNQELFDLKAAIDTKDSQTNSQLFNYFRDKAFPNLSARQLGVMPDLVLDMFINGYYLNVFKTQSTDVNRPYQDKDKRGGIFDAVFTRGDQTTLLTARYDLYNKGLNDISTIIKQELTEGRALALSHTYANVSISHVINLWGADFNAEGNLEAIYVTDSDANASIGMKKYFVGINAHGHVAISAKKIEGENIGAQVLGLFTLSSGKDIWQKLSLEHHHHHH
B5: PRT-610 (protein)
chain: MQITSVWTKGVTPLTPEQFRYNNEDVIHAPYLAHQGWYDITKAFDGKDNLLCGAATAGNMLHWWFDQNKTEIEAYLSKHPEKQKIIFNNQELFDLKAAIDTKDSQTNSQLFNYFRDKAFPNLSARQLGVMPDLVLDMFINGYYLNVFKTQSTDVNRPYQDKDKRGGIFDAVFTRGDQTTLLTARHDLKNKGLNDISTIIKQELTEGRALALSHTYANVSISHVINLWGADFNAEGNLEAIYVTDSDANASIGMKKYYVGINAHGHVAISAYKIEGENIGAQVLGLFTLSSGKDIWQKLSLEHHHHHH
B6: PRT-681 (protein)
chain: MQITSVWTKGVTPLTPEQFRYNNEDVIHAPYLAHQGWYDITKAFDGKDNLLCGAATAGNMLHWWFDQNKTEIEAYLSKYPEKQKIIFNNQELFDLRAAINTKDSQTNSQLFNYFRDKAFPNLSARQLGVMPDLVLDMFINGYYLNVFKTQSTDVNRPYQDKDKRGGIFDAVFTRGDQTTLLTARHDLKNKGLNDISTIIKQELTEGRALALSHTYANVSISHVINLWGADFNAEGNLEAIYVTDSDANASIGMKKYYVGINAHGHVAISAKKIEGENIGAQVLGLFTLSSGKEIWQKLSLEHHHHHH
B7: PRT-621 (protein)
chain: MQITSVWTKGVTPLTPEQFRYNNEDVIHAPYLAHQGWYDITKAFDGKDNLLCGAATAGNMLHWWFDQNKTEIEAYLSKHPEKQKIIFNNQELFDLKAAIDTKDSQTNSQLFNYFRDKAFPNLSARQLGVMPDLVLDMFINGYYLNVFKTQSTDVNRPYQDKDKRGGIFDAVFTRGDQTTLLTARHDLKNKTLNEISQIIKQELSSGRALALSHTYANVSISHVINLWGADFNAEGNLEAIYVTDSDANASIGMKKYFVGINAHGHVAISAKKIEGENIGAQVLGLFTLSSGKDIWQKLSLEHHHHHH
B8: PRT-657 (protein)
chain: MQITSVWTKGVTPLTPEQFRYNNEDVIHAPYLAHQGWYDITKAFDGKDNLLCGAATAGNMLHWWFDQNKTEIEAYLSKHPEKQKIIFNNQELFDLREAINTKDSQTDSKLFNYFRDKAFPNLSARQLGVMPDLVLDMFINGYYLNVFKTQSTDVNRPYQDKDKRGGIFDAVFTRGDQTTLLTARHDLKNKGLNDISTIIKQELTEGRALALSHTYANVSISHVINLWGADFNAEGNLEAIYVTDSDANASIGMKKYFVGINAHGHVAISAKKIEGENIGAQVLGLFTLSSGKDIWQKLSLEHHHHHH
B9: PRT-619 (protein)
chain: MQITTVWTKGVTPLTPEQFRYNNEDVIHAPYLAHQGWYDITKAFDGKDNLLCGAATAGNMLHWWFDQNKTEIEAYLSKHPEKQKIIFNNQELFDLKAAIDTKDSQTNSQLFNYFRDKAFPNLSARQLGVMPDLVLDMFINGYYLNVFKTQSTDVNRPYQDKDKRGGIFDAVFTRGDQTTLLTARHDLKNGGLEDISTIIKQELKNGRALALSHTYANVSISHVINLWGADFNAEGNLSAIYVTDSDANASIGMKKYFVGINAHGHVAISAKKIEGENIGAQVLGLFTLSSGKDIWQKLSLEHHHHHH
B10: PRT-651 (protein)
chain: MQITSVWTKGVTPLTPEQFRYNNEDVIHAPYLAHQGWYDITKAFDGKDNLLCGAATAGNMLHWWFDQNKTEIEAYLSKHPEKQKIIFNNQELFDLKAAIDTKDSQTNSQLFNYFRDKAFGNLSARQLGVMPDLVLDMFINGYYLNVGKTQSTDVNRPYQTRDKRGGIFDAVFTRGDQTTLLTARHDLKNKGLNDISTIIKQELTEGRALALSHTYANVSISHVINLWGADFNAEGNLEAIYVTDSDANASIGMKKYFVGINAHGHVAISAKKIEGENIGAQVLGLFTLSSGKDIWQKLSLEHHHHHH
B11: PRT-633 (protein)
chain: MQITSVWTKGVTPLTPEQFTNNNEDVIHAPYKANQGWYDITKAFDGKDNLLCGAATAGNMLHWWFDQNKTEIEAYLSKHPEKQKIIFNNQELFDLKAAIDTKDSQTNSQLFNYFRDKAFPNLSARQLGVMPDLVLDMFINGYYLNVFKTQSTDVNRPYQDKDKRGGIFDAVFTRGDQTTLLTARHDLKNKGLNDISTIIKQELTEGKALALSHTYANVSISHVINLWGADFNAEGNLEAIYVTDSDANASIGMKKYFVGINAHGHVAISAKKIEGENIGAQVLGLFTLSSGKDIWQKLSLEHHHHHH
B12: PRT-663 (protein)
chain: MQITSVWTKGVTPPTPEQFRYNNEDVIHAPYLAHQGWYDITKTFDGKDNLLCGAATAGNMLHWWFDQNKTEIEAYLSKHPEKQKIIFNNQELFDLKEAINTKDSQTNSQLFNYFRDKAFPNLSARQLGVMPDLVLDMFINGYYLNVFKTQSTDVNRPYQDKDKRGGIFDAVFTRGDQTKLLTARHDLKNKGLNEISTLIKQELTEGKALALSHTYANVSISHVINLWGADFNAEGNLEAIYVTDSDANASIGMKKYFVGINASGHVAISAKKIEGENIGAQVLGLFTLSTGKDIWQKLSLEHHHHHH
B13: PRT-642 (protein)
chain: MQITSVWTKGVTPLTPEQFRYNNEDVIHAPYLAHQGWYDITKTFNRGDNLLCGAATAGNMLHWWFDQNKTEIEAYLSKHPEKQKIIFNNQELFDLKAAIDTKDSQTNSQLFNYFRDKAFPNLSARQGGVMPDLVLDMFINGYYLNVFKTQSTDVNRPYQDKDKRGGIFDAVFTRGDQTTLLTARHDLKNKGLNDISTIIKQELTEGRALALSHTYANVSISHVINLWGADFNAEGNLEAIYVTDSDADEKIGMKKYFVGINAHGHVAISAKKIEGENIGAQVLGLFTLSSGKDIWQKLSLEHHHHHH

The target in the data set is pooled human IgG (human IgG1, 2, 3 and 4).
B1: the Enzyme Activity Endpoint Assay (purified): Fab′2 worked out at 880 ng/µL, the Enzyme Activity Endpoint Assay (purified): Fc came out at 402 ng/µL, the Enzyme Activity Endpoint Assay (purified): IgG was found to be 0 ng/µL and the Enzyme Activity Endpoint Assay (purified): scIgG is 0 ng/µL.
For the protein B2, the Enzyme Activity Endpoint Assay (purified): Fab′2 was determined as 701 ng/µL, the Enzyme Activity Endpoint Assay (purified): Fc worked out at 430 ng/µL, the Enzyme Activity Endpoint Assay (purified): IgG is 221 ng/µL and the Enzyme Activity Endpoint Assay (purified): scIgG came out at 161 ng/µL.
The corresponding values for B3 are 522 ng/µL, 452 ng/µL, 130 ng/µL and 600 ng/µL.
The matching figures for B4: 924 ng/µL, 490 ng/µL, 0 ng/µL and 0 ng/µL.
The matching figures for B5: 688 ng/µL, 381 ng/µL, 0 ng/µL and 0 ng/µL.
On to B6, for which the Enzyme Activity Endpoint Assay (purified): Fab′2 stood at 915 ng/µL, the Enzyme Activity Endpoint Assay (purified): Fc came to 492 ng/µL, the Enzyme Activity Endpoint Assay (purified): IgG turned out to be 0 ng/µL and the Enzyme Activity Endpoint Assay (purified): scIgG was found to be 0 ng/µL.
Consider B7, for which the Enzyme Activity Endpoint Assay (purified): Fab′2 was determined as 976 ng/µL, the Enzyme Activity Endpoint Assay (purified): Fc is 514 ng/µL, the Enzyme Activity Endpoint Assay (purified): IgG stood at 0 ng/µL and the Enzyme Activity Endpoint Assay (purified): scIgG stood at 0 ng/µL.
Consider B8, for which the Enzyme Activity Endpoint Assay (purified): Fab′2 stood at 430 ng/µL, the Enzyme Activity Endpoint Assay (purified): Fc was 250 ng/µL, the Enzyme Activity Endpoint Assay (purified): IgG was 0 ng/µL and the Enzyme Activity Endpoint Assay (purified): scIgG was 0 ng/µL.
Take B9: the Enzyme Activity Endpoint Assay (purified): Fab′2 was found to be 140 ng/µL, the Enzyme Activity Endpoint Assay (purified): Fc was 283 ng/µL, the Enzyme Activity Endpoint Assay (purified): IgG came out at 102 ng/µL and the Enzyme Activity Endpoint Assay (purified): scIgG came to 591 ng/µL.
The corresponding values for B10 are 542 ng/µL, 367 ng/µL, 168 ng/µL and 359 ng/µL.
The matching figures for B11: 749 ng/µL, 429 ng/µL, 0 ng/µL and 0 ng/µL.
The matching figures for B12: 825 ng/µL, 456 ng/µL, 0 ng/µL and 0 ng/µL.
Consider B13, for which the Enzyme Activity Endpoint Assay (purified): Fab′2 was found to be 175 ng/µL, the Enzyme Activity Endpoint Assay (purified): Fc was found to be 260 ng/µL, the Enzyme Activity Endpoint Assay (purified): IgG is 360 ng/µL and the Enzyme Activity Endpoint Assay (purified): scIgG is 760 ng/µL.
